Here are results for 94 variants from the supplement of paper PMC10567573.

B1: MFF (parent)
chain: YTEGISQRMRVPEKLKVAPPNADL
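Further: lentivirally expressed fusions sorted by FACS into six bins by GFP to DsRed ratio, PSI derived from sequencing read proportions per bin multiplied by bin number.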

The data set covers variants of B1. The data set is described as follows: protein stability index of a GFP-peptide fusion (GPS, HEK-293T) (PSI 1-6); higher = more stable. To be noted: c terminus: a fixed tail appended.
On to YTEGHSQRMRVPEKLKVAPPNADL [I5H], for which the protein stability index was determined as 3.81.

Turning to YTEGTSQRMRVPEKLKVAPPNADL [I5T], the protein stability index is 3.9.

Consider YTEGYSQRMRVPEKLKVAPPNADL [I5Y], for which the protein stability index came out at 2.41.

Consider YTEGMSQRMRVPEKLKVAPPNADL [I5M], for which the protein stability index was found to be 3.4.

Turning to YTEGVSQRMRVPEKLKVAPPNADL [I5V], the protein stability index is 3.63.

Consider YTEGDSQRMRVPEKLKVAPPNADL [I5D], for which the protein stability index came to 4.55.

Regarding YTEGSSQRMRVPEKLKVAPPNADL [I5S], the protein stability index came to 4.16.

Regarding YTEGWSQRMRVPEKLKVAPPNADL [I5W], the protein stability index came to 2.75.

On to YTEGPSQRMRVPEKLKVAPPNADL [I5P], for which the protein stability index turned out to be 4.33.

On to YTEGRSQRMRVPEKLKVAPPNADL [I5R], for which the protein stability index came to 3.78.

Take YTEGASQRMRVPEKLKVAPPNADL [I5A]: the protein stability index worked out at 4.19.

With YTEGKSQRMRVPEKLKVAPPNADL [I5K], the protein stability index is 4.18.

YTEGLSQRMRVPEKLKVAPPNADL [I5L]: the protein stability index worked out at 3.06.

As for YTEGESQRMRVPEKLKVAPPNADL [I5E], the protein stability index came to 4.78.

For YTEGNSQRMRVPEKLKVAPPNADL [I5N], the protein stability index was found to be 4.03.

YTEGFSQRMRVPEKLKVAPPNADL [I5F]: the protein stability index was 2.13.

For YTEGGSQRMRVPEKLKVAPPNADL [I5G], the protein stability index worked out at 3.72.

In the case of YTEGCSQRMRVPEKLKVAPPNADL [I5C], the protein stability index was 4.16.

Take YTEGQSQRMRVPEKLKVAPPNADL [I5Q]: the protein stability index is 4.44.

YTEGISFRMRVPEKLKVAPPNADL [Q7F]: the protein stability index worked out at 1.82.

Consider YTEGISIRMRVPEKLKVAPPNADL [Q7I], for which the protein stability index was found to be 2.85.

As to YTEGISTRMRVPEKLKVAPPNADL [Q7T], the protein stability index turned out to be 2.71.

For the variant YTEGISYRMRVPEKLKVAPPNADL [Q7Y], the protein stability index turned out to be 1.75.

For YTEGISRRMRVPEKLKVAPPNADL [Q7R], the protein stability index came out at 2.81.

For YTEGISHRMRVPEKLKVAPPNADL [Q7H], the protein stability index worked out at 1.81.

For YTEGISSRMRVPEKLKVAPPNADL [Q7S], the protein stability index was found to be 2.45.

Turning to YTEGISWRMRVPEKLKVAPPNADL [Q7W], the protein stability index was 2.21.

Take YTEGISCRMRVPEKLKVAPPNADL [Q7C]: the protein stability index was 2.9.

YTEGISLRMRVPEKLKVAPPNADL [Q7L]: the protein stability index amounted to 2.77.

Consider YTEGISGRMRVPEKLKVAPPNADL [Q7G], for which the protein stability index amounted to 2.65.

With YTEGISERMRVPEKLKVAPPNADL [Q7E], the protein stability index came out at 3.26.

Take YTEGISDRMRVPEKLKVAPPNADL [Q7D]: the protein stability index is 3.43.

For YTEGISPRMRVPEKLKVAPPNADL [Q7P], the protein stability index is 3.4.

For YTEGISNRMRVPEKLKVAPPNADL [Q7N], the protein stability index is 2.74.

Take YTEGISMRMRVPEKLKVAPPNADL [Q7M]: the protein stability index amounted to 2.59.

On to YTEGISVRMRVPEKLKVAPPNADL [Q7V], for which the protein stability index came to 3.21.

With YTEGISARMRVPEKLKVAPPNADL [Q7A], the protein stability index worked out at 2.97.

YTEGISKRMRVPEKLKVAPPNADL [Q7K]: the protein stability index worked out at 2.39.

As to YTTGISQRMRVPEKLKVAPPNADL [E3T], the protein stability index turned out to be 2.56.

In the case of YTQGISQRMRVPEKLKVAPPNADL [E3Q], the protein stability index worked out at 3.01.

Turning to YTKGISQRMRVPEKLKVAPPNADL [E3K], the protein stability index came to 2.41.

Take YTFGISQRMRVPEKLKVAPPNADL [E3F]: the protein stability index stood at 1.9.

As for YTVGISQRMRVPEKLKVAPPNADL [E3V], the protein stability index stood at 2.44.

As for YTMGISQRMRVPEKLKVAPPNADL [E3M], the protein stability index stood at 2.48.

Take YTYGISQRMRVPEKLKVAPPNADL [E3Y]: the protein stability index worked out at 2.69.

For YTPGISQRMRVPEKLKVAPPNADL [E3P], the protein stability index is 2.29.

For the variant YTIGISQRMRVPEKLKVAPPNADL [E3I], the protein stability index was determined as 2.42.

For the variant YTLGISQRMRVPEKLKVAPPNADL [E3L], the protein stability index came to 2.58.

Consider YTRGISQRMRVPEKLKVAPPNADL [E3R], for which the protein stability index came out at 3.03.

For YTNGISQRMRVPEKLKVAPPNADL [E3N], the protein stability index came to 3.3.

Regarding YTSGISQRMRVPEKLKVAPPNADL [E3S], the protein stability index amounted to 2.54.

In the case of YTWGISQRMRVPEKLKVAPPNADL [E3W], the protein stability index came to 1.53.

As to YTHGISQRMRVPEKLKVAPPNADL [E3H], the protein stability index was 2.92.

In the case of YTGGISQRMRVPEKLKVAPPNADL [E3G], the protein stability index was 2.3.

As to YTEGISQCMRVPEKLKVAPPNADL [R8C], the protein stability index was found to be 2.47.

For YTEGISQAMRVPEKLKVAPPNADL [R8A], the protein stability index turned out to be 2.82.

For YTEEISQRMRVPEKLKVAPPNADL [G4E], the protein stability index was determined as 3.61.

On to YTEIISQRMRVPEKLKVAPPNADL [G4I], for which the protein stability index turned out to be 3.

For YTELISQRMRVPEKLKVAPPNADL [G4L], the protein stability index stood at 2.47.

On to YTEAISQRMRVPEKLKVAPPNADL [G4A], for which the protein stability index is 3.9.

As to YTERISQRMRVPEKLKVAPPNADL [G4R], the protein stability index came to 3.72.

Take YTEMISQRMRVPEKLKVAPPNADL [G4M]: the protein stability index was determined as 2.52.

For YTEPISQRMRVPEKLKVAPPNADL [G4P], the protein stability index turned out to be 3.79.

Consider YTEWISQRMRVPEKLKVAPPNADL [G4W], for which the protein stability index came out at 2.25.

On to YTENISQRMRVPEKLKVAPPNADL [G4N], for which the protein stability index came out at 3.75.

As to YTEDISQRMRVPEKLKVAPPNADL [G4D], the protein stability index turned out to be 4.46.

For the variant YTEHISQRMRVPEKLKVAPPNADL [G4H], the protein stability index was 3.46.

Consider YTEYISQRMRVPEKLKVAPPNADL [G4Y], for which the protein stability index was 2.69.

For YTEFISQRMRVPEKLKVAPPNADL [G4F], the protein stability index came to 2.32.

With YTEKISQRMRVPEKLKVAPPNADL [G4K], the protein stability index was 3.63.

YTEQISQRMRVPEKLKVAPPNADL [G4Q]: the protein stability index was 3.5.

In the case of YTEVISQRMRVPEKLKVAPPNADL [G4V], the protein stability index was found to be 3.21.

Take YTESISQRMRVPEKLKVAPPNADL [G4S]: the protein stability index came to 3.88.

YTECISQRMRVPEKLKVAPPNADL [G4C]: the protein stability index amounted to 3.47.

Consider YTETISQRMRVPEKLKVAPPNADL [G4T], for which the protein stability index was 3.45.

YTEGIKQRMRVPEKLKVAPPNADL [S6K]: the protein stability index amounted to 2.45.

Take YTEGIPQRMRVPEKLKVAPPNADL [S6P]: the protein stability index stood at 2.29.

As to YTEGICQRMRVPEKLKVAPPNADL [S6C], the protein stability index amounted to 2.6.

Consider YTEGIWQRMRVPEKLKVAPPNADL [S6W], for which the protein stability index worked out at 2.52.

For YTEGIEQRMRVPEKLKVAPPNADL [S6E], the protein stability index turned out to be 3.91.

For YTEGIYQRMRVPEKLKVAPPNADL [S6Y], the protein stability index was 3.1.

Regarding YTEGIFQRMRVPEKLKVAPPNADL [S6F], the protein stability index is 2.14.

With YTEGIRQRMRVPEKLKVAPPNADL [S6R], the protein stability index is 2.94.

Consider YTEGIHQRMRVPEKLKVAPPNADL [S6H], for which the protein stability index amounted to 2.63.

Take YTEGIGQRMRVPEKLKVAPPNADL [S6G]: the protein stability index amounted to 2.86.

In the case of YTEGIVQRMRVPEKLKVAPPNADL [S6V], the protein stability index is 2.19.

Take YTEGIDQRMRVPEKLKVAPPNADL [S6D]: the protein stability index was 3.51.

Turning to YTEGITQRMRVPEKLKVAPPNADL [S6T], the protein stability index is 2.98.

Turning to YTEGIAQRMRVPEKLKVAPPNADL [S6A], the protein stability index was 2.76.

As for YTEGIQQRMRVPEKLKVAPPNADL [S6Q], the protein stability index was determined as 2.71.

In the case of YTEGINQRMRVPEKLKVAPPNADL [S6N], the protein stability index was 2.93.

Turning to YTEGIMQRMRVPEKLKVAPPNADL [S6M], the protein stability index stood at 2.09.

On to YTEGIIQRMRVPEKLKVAPPNADL [S6I], for which the protein stability index turned out to be 2.51.

YTEGILQRMRVPEKLKVAPPNADL [S6L]: the protein stability index was 2.85.
